Assay results from publication PMC7147772, “Biochemical characterization of the Nocardia lactamdurans ACV synthetase” (PLoS ONE, 2020).

What was measured:
Experiment in all cases: ACV tripeptide formation, HPLC/MS
Format in all cases: biochemical, Amycolatopsis lactamdurans
N[C@@H](CS)C(=O)O = conditions: L-α-Aaa and L-Val co-substrates, 5 mM ATP, 5 mM MgCl2, 2 mM DTT, CoA and Sfp, pH 7.0, 30 °C, module 2
N[C@@H](CCCC(=O)O)C(=O)O = conditions: L-Cys and L-Val co-substrates, 5 mM ATP, 5 mM MgCl2, 2 mM DTT, CoA and Sfp, pH 7.0, 30 °C, module 1
CC(C)[C@H](N)C(=O)O = conditions: L-α-Aaa and L-Cys co-substrates, 5 mM ATP, 5 mM MgCl2, 2 mM DTT, CoA and Sfp, pH 7.0, 30 °C, module 3

Nl ACVS (L-δ-(α-aminoadipoyl)-L-cysteinyl-D-valine synthetase) (Amycolatopsis lactamdurans)
Km (N[C@@H](CS)C(=O)O): 40 ± 1 µM | Km (N[C@@H](CCCC(=O)O)C(=O)O): 640 ± 16 µM | Km (CC(C)[C@H](N)C(=O)O): 150 ± 4 µM
